{"source": "patent US7871782B2", "about": "“Specific binding members against synaptophysin” (The University Court of the University of Aberdeen, priority 2004, dated 2011)", "key": {"human HSCs [1]": {"test_system": "human HSCs", "assay": "Fluorescence microscopy without fixation: effect of peptides and monensin on FITC-C1-3 scAb binding", "format": "cell-based", "details": "monensin 2.5 and 15 μM; for effect on FITC-C1-3 association/binding to HSCs: added with 10 μg FITC-C1-3 scAb, peptides 0.25-25 nmoles, FIG. 13", "description": "Effect of synaptophysin peptides and monensin on FITC-C1-3 scAb binding to human HSCs. Human HSCs seeded into 24 well plates were washed and incubated in 500 μl Hepes/HBSS per well for 1 hour containing either: 10 μg C1-3 scAb; 10 μg FITC-C1-3 scAb; 10 μg FITC-C1-3 scAb and 0.25 nmoles of the target peptide; 10 μg FITC-C1-3 scAb and 2.5 nmoles of the target peptide; 10 μg FITC-C1-3 scAb and 25 nmoles of the target peptide; 10 μg FITC-C1-3 scAb and 25 nmoles of the target peptide P1; 10 μg FITC-C1-3 scAb and 2.5 μM monensin; 10 μg FITC-C1-3 scAb and 15 μM monensin; 10 μg FITC-3A8 scAb (scAb raised to microcystin and not expected to bind to HSCs). Cells incubated with monensin were preincubated for 10 minutes. Just prior to addition of scAb, the medium was changed and cells were re-dosed with monensin. […] Bar=μm. Monen=monensin; P1=the […] peptide (SEQ ID NO 27); P2=the target peptide.\nHSCs seeded into 24 well plates were washed with Hepes/HBSS and then incubated at 37° C. in 500 μl/well Hepes/HBSS containing 10 μg scAb with or without additional compounds. After 1 hour, the cells were washed 3 times with 500 μl Hepes/HBSS. Cells were analysed using an Axiovert 100 microscope (Zeiss, Germany) using filter set #9 (BP 450-490 nm; LP 515 nm)."}, "human hepatocytes": {"test_system": "human hepatocytes", "assay": "Fluorescence microscopy of FITC-labelled scAb with cells", "format": "cell-based", "description": "(§1) FITC-C1-3 scAb was tested for its ability to interact with hepatic stellate cells in culture by fluorescence microscopy. Human hepatic stellate cells were seeded (1×10^3 cells per chamber) on chamber slides (Nunclon, Naperville) in complete medium prior to experimentation. Cells were washed twice in phosphate buffered saline (PBS) and incubated in 500 μl Hepes/HBSS buffer (0.14M NaCl, 5.4 mM KCl, 0.34 mM Na2HPO4, 0.94 mm KH2PO4, 5.6 mM glucose, 1 mM CaCl2, 6 mM HEPES, 4 mM NaHCO3 pH7.4) containing 10 μg scAb or FITC-C1-3 scAb for 1 h at room temperature in the dark. The cells were then washed in PBS and mounted with Vectashield mounting medium (Vector laboratories, Burlingame, Calif.) containing 4′,6′ diamindino-2 phenylindole (DAPI) to stain cell nuclei and coverslips applied. Florescence microscopy was carried out using a Zeiss Axeola II microscope with a Photometrics Sensis camera, and data captured using the Smart Capture programme. Human hepatocytes (UK Human Tissue Bank) were originally cultured in a collagen-coated 24 well plate (1×10^5/well) and maintained in William's medium E supplemented with 80 units/ml penicillin and 80 μg/ml streptomycin."}, "[2]": {"test_system": "human hepatic stellate cells", "assay": "Fluorescence microscopy of FITC-labelled scAb with cells", "format": "cell-based", "details": "10 μg scAb, 1 h, room temperature", "description": "as §1"}, "HSCs": {"test_system": "HSCs", "assay": "Effect of scAb incubation on HSC viability (attachment, protein assay)", "format": "cell-based, human", "details": "3 hours incubation, 5 μg scAb or indicated chemical, FIG. 12", "description": "Effect of scAb incubation on HSC viability. HSCs seeded into 24 well plates were incubated in 0.3 mls culture medium containing 5 μg scAb or the indicated-chemical. Cells were incubated for 3 hours prior to removal of medium and washing with 1×PBS. Attachment (as a measure of viability) was determined by a direct protein assay in the culture wells."}, "target peptide-BSA": {"biological_target": "T1, target peptide-BSA (Homo sapiens, UniProt P08247)", "T1 construct": "host or cells: chemical synthesis (Fmoc), no expression host", "assay": "Monoclonal phage-antibody ELISA", "format": "binding", "details": "FIG. 3", "description": "C1-phage antibody clone (monoclonal) assayed for binding to the target peptide-BSA as outlined for FIG. 2.\n(§2) Purified polyclonal phage enriched for binders to peptides were assayed by ELISA using flat bottomed 96-well Immulon-4 microtitre plates (Dynex, Sussex, UK) coated with 2 μg/well protein (peptide-BSA or BSA) in PBS overnight at 4° C. Bound phage were detected by incubation with 100 μl/well horseradish peroxidase (HRP) conjugated anti-M13 antibody (AmershamPharmacia) for 1 h, washing, and incubation with 100 μl/well tetramethylbenzidine dihydrochloride solution (KPL Laboratories, Gaithersburg, Md.). Reactions were stopped with 50 μl/well 1M H2SO4, and the absorbance at 450 nm read using a microtitre plate reader.\nIndividual colonies from pan 3 were grown in 96 well plates (Greiner) and phage-antibodies rescued with M13 KO7.\nSpecificity of phage supernatants for binding to peptide-BSA and BSA alone was determined by ELISA. The scFv encoding regions of positive clones were subcloned in to the expression vector pIMS147. This is a modification of the IPTG (isopropyl-β-D-thiogalactopyranoside) inducible pUC based vector pIMS100 (Hayhurst A. et al. Protein Expr Purif 1999; 15:336-43). The addition of a hexa-histadine tag permits purification of the expressed scAb by immobilised metal ion chelate affinity chromatography. Vectors were transformed into E. coli TG1 or XL1 blue cells."}, "HepG2 cells": {"test_system": "HepG2 cells", "assay": "Fluorescence binding to cells", "format": "cell-based"}, "[3]": {"test_system": "hepatic stellate cell and hepatocytes co-cultured", "format": "cell-based, human", "description": "For co-culture experiments, hepatic stellate cells were seeded into hepatocytes cultures (1×10^3 cells per well) and cultured for 24 h prior to experimentation. The C1-3 or FITC-C1-3 scAb was incubated as outlined for pure hepatic stellate cell cultures except that after 1 hour incubation and washing, the cells were harvested by trypsinisation and centrifugation at 1000 rpm for 5 min. The cell pellet was then resuspended in 0.4% formaldehyde/10^6 cells, applied onto glass slides by cytocentrifugation and mounted with Vectashield containing DAPI. Slides were viewed by fluorescence microscopy as before."}, "[4]": {"biological_target": "T2, synaptophysin in rat HSCs (Rattus norvegicus, UniProt P07825)", "T2 construct": "endogenous in cells; host or cells: rat hepatic stellate cells", "T2 sequence (P07825 whole entry)": "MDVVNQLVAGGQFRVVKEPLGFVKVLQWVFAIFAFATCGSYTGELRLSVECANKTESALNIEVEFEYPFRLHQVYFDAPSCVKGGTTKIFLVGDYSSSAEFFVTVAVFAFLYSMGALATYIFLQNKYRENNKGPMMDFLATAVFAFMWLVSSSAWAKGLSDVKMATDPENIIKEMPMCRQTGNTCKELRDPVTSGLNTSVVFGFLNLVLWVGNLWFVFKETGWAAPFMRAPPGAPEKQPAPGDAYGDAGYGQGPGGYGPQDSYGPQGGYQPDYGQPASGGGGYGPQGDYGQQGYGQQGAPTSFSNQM", "assay": "Western analysis of cell extracts probed with C1-3 scAb", "format": "binding", "details": "rat HSC extract, FIG. 8", "description": "(§3) Western blot showing the binding of C1-3 scAb to the target peptide. Cell extracts (5 μg/lane) were subjected to Western blotting and membranes probed with C1-3 scAb followed by incubation with HRP conjugated anti-human Cκ light chain antibody and detection using ECL reagent. rHSCs—rat hepatic stellate cells; hHSCs—human hepatic stellate cells (AH4=anonymous patient code); rHCs—rat hepatocytes; B13—rat pancreatic stem cell; B13-H—rat pancreatic stem cell after trans-differentiation into an hepatocyte.\n(§4) Western blotting was performed essentially as described in Wright M. C. et al. Mol Pharmacol 1996; 50:856-63."}, "[5]": {"biological_target": "T3, synaptophysin in human HSCs (Homo sapiens, UniProt P08247)", "T3 construct": "endogenous in cells; host or cells: human hepatic stellate cells (patient-derived, AH4)", "T3 sequence (P08247 whole entry)": "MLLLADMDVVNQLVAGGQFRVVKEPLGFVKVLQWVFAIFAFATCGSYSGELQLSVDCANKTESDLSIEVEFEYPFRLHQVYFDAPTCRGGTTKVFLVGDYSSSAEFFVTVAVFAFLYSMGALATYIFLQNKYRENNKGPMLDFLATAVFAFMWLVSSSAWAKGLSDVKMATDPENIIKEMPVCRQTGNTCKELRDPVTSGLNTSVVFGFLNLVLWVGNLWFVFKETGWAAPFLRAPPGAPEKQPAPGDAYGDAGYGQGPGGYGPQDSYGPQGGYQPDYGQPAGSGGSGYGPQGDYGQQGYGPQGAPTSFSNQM", "assay": "Western analysis of cell extracts probed with C1-3 scAb", "format": "binding", "details": "human HSC extract, FIG. 8", "description": "as §3, §4"}, "COS-7 cells": {"test_system": "COS-7 cells", "assay": "Fluorescence binding to cells", "format": "cell-based"}, "human HSCs [6]": {"test_system": "human HSCs", "assay": "Uptake of scAb and conjugates by human HSCs in culture (Western blot of medium)", "format": "cell-based", "details": "5 μg scAb in 0.3 mls medium, FIG. 11", "description": "Uptake of C1-3 scAb and C1-3-conjugates by human HSCs in culture. HSCs seeded into 24 well plates were incubated in 0.3 mls culture medium containing 5 μg scAb. Samples of medium were taken at the indicated times and subjected to Western blotting to detect scAb using HRP-conjugated anti-human Cκ light chain antibody (UPPER PANEL) and serum albumin (LOWER PANEL) as a loading control. Results typical of 4 separate experiments."}, "[7]": {"biological_target": "T4, peptide YPFRLHQVYFDAPSC (SEQ ID NO 9) (Homo sapiens, UniProt P08247)", "T4 construct": "host or cells: chemical synthesis (Fmoc), no expression host", "assay": "Expressed purified anti-peptide scAb ELISA", "format": "binding", "description": "Expressed scAb was tested for its ability to interact with the peptide […] (SEQ ID NO: 9) by ELISA using anti-BSA-target peptide scAb. Wells of a 96 well plate were coated with BSA-target peptide or BSA and incubated with either C1-3 scAb (grey bars) or control scAb incubation buffer (clear bars) followed by extensive washing. Bound scAb was detected using the HRP conjugated anti-human Cκ light chain antibody and quantitated as outlined in methods section. Data are the mean and standard deviation of 3 separate determinations. ‘BSA-peptide 2’ is the target peptide.\nas §2\nExpressed scAb was tested for its ability to interact with peptide by ELISA essentially as outlined for polyclonal anti-peptide phage-antibody ELISAs. […]"}}, "data": [{"molecule": "YPFRLHQVYFDAPSC (listed as Homo sapiens) [C1-3 antigen]", "values": [{"measurement": "effect on FITC-C1-3 association/binding to HSCs", "setting": "human HSCs [1]", "result": "decreased FITC-C1-3 binding to HSCs in a dose-dependent manner"}]}, {"molecule": "FITC-BSA: FITC labelled bovine serum albumin, specificity control [reference compound]", "values": [{"measurement": "green fluorescence associated with human hepatocytes", "setting": "human hepatocytes", "result": "displayed cytoplasmic foci of fluorescence"}, {"measurement": "green fluorescence associated with hepatic stellate cells", "setting": "[2]", "result": "displayed cytoplasmic foci of fluorescence"}]}, {"molecule": "CN(C)CCCN1c2ccccc2Sc2ccc(Cl)cc21", "note": "[chlorpromazine]", "values": [{"measurement": "toxicity to HSCs (attachment as measure of viability)", "setting": "HSCs", "result": "kill HSCs"}]}, {"molecule": "CC[C@@]1([C@@H]2O[C@@H]([C@H]3O[C@@](O)(CO)[C@H](C)C[C@@H]3C)C[C@@H]2C)CC[C@H]([C@]2(C)CC[C@]3(C[C@H](O)[C@@H](C)[C@@H]([C@@H](C)[C@@H](OC)[C@H](C)C(=O)O)O3)O2)O1", "note": "[monensin]", "values": [{"measurement": "effect on FITC-C1-3 association/binding to HSCs", "setting": "human HSCs [1]", "result": "did not inhibit the total number of cells stained"}, {"measurement": "effect on FITC-C1-3 uptake (nuclear FITC-C1-3 staining)", "setting": "human HSCs [1]; 10 minutes preincubation", "result": "reduced uptake"}]}, {"molecule": "ATDPENIIKEMPMC (listed as Homo sapiens)", "values": [{"measurement": "effect on FITC-C1-3 association/binding to HSCs", "setting": "human HSCs [1]", "result": "did not significantly inhibit"}]}, {"molecule": "C1: monoclonal phage-antibody clone from pan 3 of Tomlinson I+J libraries, subcloned to give C1-3 scAb (protein) scFv: MAEVQLLESGGGLVQPGGSLRLSCAASGFTFSSYAMSWVRQAPGKGLEWVSTIAASGPSTGYADSVKGRFTISRDNSKNTLYLQMNSLRAEDTAVYYCAKTTAKFDYWGQGTLVTVSSGGGGSGGGGSGGGGSTDIQMTQSPSSLSASVGDRVTITCRASQSISSYLNWYQQKPGKAPKLLIYSASRLQSGVPSRFNGSGSGTDFTLTISSLQPEDFATYYCQQLQRKPTTFGQGTKVEIKRGAAA", "values": [{"measurement": "binding response in monoclonal phage-antibody ELISA", "setting": "target peptide-BSA", "result": "good binding response"}]}, {"molecule": "C1-3 scAb: human single-chain antibody fragment with human Cκ domain and His tag, specific for synaptophysin peptide …; amino acid sequence SEQ ID NO 8 (protein, human Cκ domain and His tag; C1-3 amino acid sequence) scFv: MAEVQLLESGGGLVQPGGSLRLSCAASGFTFSSYAMSWVRQAPGKGLEWVSTIAASGPSTGYADSVKGRFTISRDNSKNTLYLQMNSLRAEDTAVYYCAKTTAKFDYWGQGTLVTVSSGGGGSGGGGSGGGGSTDIQMTQSPSSLSASVGDRVTITCRASQSISSYLNWYQQKPGKAPKLLIYSASRLQSGVPSRFNGSGSGTDFTLTISSLQPEDFATYYCQQLQRKPTTFGQGTKVEIKRGAAAPSVFIF", "values": [{"measurement": "fluorescence binding to HepG2 cells", "setting": "HepG2 cells", "result": "not detected"}, {"measurement": "green fluorescence in hepatic stellate cell/hepatocyte co-cultures", "setting": "[3]", "result": "No significant green fluorescence"}, {"measurement": "cross-reaction with synaptophysin in rat HSCs", "setting": "[4]", "result": "did not cross-react"}, {"measurement": "size of protein bound by scAb in Western analysis", "setting": "[5]", "result": "~32", "unit": "kDa"}, {"measurement": "fluorescence binding to COS-7 cells", "setting": "COS-7 cells", "result": "not detected"}, {"measurement": "green fluorescence associated with human hepatocytes", "setting": "human hepatocytes", "result": "no associated green fluorescence"}, {"measurement": "green fluorescence associated with hepatic stellate cells", "setting": "[2]", "result": "No detectable green fluorescence"}, {"measurement": "association with HSCs: change of culture medium concentration of scAb", "setting": "human HSCs [6]", "result": "reduction in culture medium concentrations"}, {"measurement": "scAb bound to peptide-BSA relative to BSA alone", "setting": "[7]; ELISA, FIG. 7", "result": "approximately 8 times"}, {"measurement": "recognition of the peptide in ELISA", "setting": "[7]; expressed scAb from XL-1 blue E coli", "result": "specifically recognised the peptide"}]}]}
